# Data taken from the supplement of paper PMC9170038.
# Test system: MS2 coat protein
# Experiment: apparent KD of MS2 coat protein; designed switch direction (-1 OFF switch, 1 ON switch): -1; higher = weaker reporter binding
# Method in brief: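 Designed RNA switches with common flanks were transcribed on Illumina chips by stalled E. coli RNA polymerase and titrated with SNAP-549-labelled MS2 coat protein, from 0.7 or 1.5 nM doubling to 3 µM, in Tris-HCl pH 7.5 buffer with KCl, MgCl2, BSA, DTT, tRNA and Tween-20. Steps lasted 0.8–1.5 h (lowest) to 10–20 min (highest). Titrations ran without input, with 200 uM small-molecule ligand, or with an oligonucleotide input. Normalised cluster fluorescence was curve-fitted, and apparent KD is the per-design median over clusters.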
# [1] = input ligand: microRNA oligo, concentration not stated
# [2] = Eterna round: R95, input ligand: microRNA oligo, concentration not stated
# [3] = Eterna round: R95, input ligand: FMN 200 uM
# [4] = Eterna round: R95, input ligand: none
Sequence,apparent KD of MS2 coat protein (input ligand: FMN 200 uM),apparent KD of MS2 coat protein [1],apparent KD of MS2 coat protein (input ligand: none),apparent KD of MS2 coat protein [2],apparent KD of MS2 coat protein [3],apparent KD of MS2 coat protein [4]
"GUAACAACUAGAGGAUAUCAGCACGUGUAGUGCUGAGAAGGCUAGAGUUACAUGAGGAUCACCCAUGUCUAGAGAUCAUUAAUU [ENG1/13-A3] (Eterna round: R96, puzzle: Exclusion NG 1)",0.142 µM,0.0529 µM,0.0693 µM,–,–,–
"GUAAGUUCAGGAUAUGAUGAAUUAAACAUGAGGAUCACCCAUGUAGAUCCUGAAUUAACAUCAGAAGGGAAUAUUU [JL-ex5-4.53 Brourd mod] (Eterna round: R97, puzzle: Exclusion 5)",0.0222 µM,–,0.0155 µM,–,–,–
"GUAAUACAUGAGGAUCACCCAUGUUAGGAUAUCUGCAGGACGUCUCCCGUAUAUCCGUAGAGAAGGGACAGUGG [Eternabot (L1) Solution 20] (Eterna round: R97, puzzle: Exclusion 1)",0.043 µM,–,0.0336 µM,–,–,–
"GUAAUGUCAGGAUAUACUAAUGAUGAAUGAUCAGACAUUAUGUAGAAGGGACAUGAGGAUCACCCAUGUAAUAU [EX4 #4] (Eterna round: R97, puzzle: Exclusion 4)",0.0493 µM,–,0.0284 µM,–,–,–
"GUAAUUCGAGGAUAUGCCCAUCUAAACAUGAGGAUCACCCAUGUGCGCAUGUUUACCAUCGCAGAAGGCGAGCUGC [Eternabot (L1) Solution 31] (Eterna round: R97, puzzle: Exclusion 5)",0.0393 µM,–,0.0255 µM,–,–,–
"GUACGCUCAGGAUAUCAAGGGCUGUACAUGAGGAUCACCCAUGUUAUCUUGGUGUCAGCGUGAGAAGGGAGGGAAA [Xesoonesa] (Eterna round: R96, puzzle: Exclusion 5)",0.0272 µM,0.0202 µM,0.0286 µM,–,–,–
GUACGCUCAGGAUAUCAAGGGCUGUACAUGAGGAUCACCCAUGUUAUCUUGGUGUCAGCGUGAGAAGGGAGGGAAA [Xesoonesa] (puzzle: Exclusion 5),–,–,–,0.0206 µM,–,–
"GUACUGACAGGAUAUACAUGAGGAUCACCCAUGUGCCUUAAUGCUACAAAAGUAGCAAGUAGAAGGGUCUGUAC [Omei Ex3 Model Bachelor's Dilema v11] (Eterna round: R97, puzzle: Exclusion 3)",0.0797 µM,–,0.0165 µM,–,–,–
GUAGAGACAGGAUAUACAUGAGGAUCACCCAUGUAAGGAGGAAGAGAGAGGAGAAGGAGUAGAAGGGUCAGAGG [JR_Exclu3_Sub029] (puzzle: Exclusion 3),–,–,–,0.0353 µM,0.0292 µM,0.0352 µM
GUAGAGUAAGGAUAUGUAGAAUAGGAUAGAAUGGUUAGAAUACAGAAGGUACAUGAGGAUCACCCAUGUAAUGU [Excluse me!!!! 3 - Jieux - Exclusion 4] (puzzle: Exclusion 4),–,–,–,0.017 µM,–,–
GUAGAGUAAGGAUAUGUUGAAUAGGAUAGAAUGGUUAGAAAACAGAAGGUACAUGAGGAUCACCCAUGUAAUGU [Excluse me!!!! 11 - Jieux - Exclusion 4] (puzzle: Exclusion 4),–,–,–,0.0191 µM,0.02 µM,0.0176 µM
"GUAGAUCGAGUUAGGAUAUGAUUAAAAUCCGGAUAUCAGAAGGAACUUGAGGAUCACCCAAGUAUAGAUGAUUU [JR_BMEx4_Sub055] (Eterna round: R97, puzzle: Brourd's mod of Exclusion 4)",0.104 µM,–,0.0232 µM,–,–,–
"GUAUAACUACACGGGCUCAACAUGAGGAUCACCCAUGUCAUAUACGCAAGCUUUUUGCUUGUCUUAUCAGGCCGUGA [Ceatxe] (puzzle: Sensor v3, turn-off variant 1)",–,–,–,0.0165 µM,0.0135 µM,0.0124 µM
"GUCACAUGGACAUAGGAUCACAUGAGGAUCACCCAUGUGACUAACAAGCUUUUUGUUCGUCUUAUGUCCAUGUGAAG [Stov1/15-B3] (Eterna round: R97, puzzle: Sensor, turn-off variant 1)",0.0124 µM,–,0.012 µM,–,–,–
"GUCAGACGAGGAUAUAAACGAUAUAACAUGAGGAUCACCCAUGUACGAUCGAAUGAUCGUUUAGAAGGCGUCUGAC [E5/10-A4] (Eterna round: R97, puzzle: Exclusion 5)",0.0173 µM,–,0.0167 µM,–,–,–
"GUCAGCUCGUCAGGAUAUACAUGAGGAUCACCCAUGUGAUCAAUAGCAGCUUCGGCUGCAAUAAUGUAGAAGGGACGAGCUGAC [ENG2/8-F] (Eterna round: R96, puzzle: Exclusion NG 2)",0.129 µM,0.578 µM,0.18 µM,–,–,–
"GUCAGCUCGUCAGGAUAUACAUGAGGAUCACCCAUGUGAUCAAUAGCAGCUUCGGCUGCAUUAAUGUAGAAGGGACGAGCUGAC [ENG2/5-B1] (Eterna round: R96, puzzle: Exclusion NG 2)",0.0347 µM,0.033 µM,0.368 µM,–,–,–
"GUCAGCUCGUCAGGAUAUACAUGAUAGAUCGAUUAAUUAAUUAAUUUAACAUGAGGAUCACCCAUGUAGAAGGGACGAGCUGAC [ENG2/1-B1] (Eterna round: R96, puzzle: Exclusion NG 2)",–,0.0398 µM,–,–,–,–
"GUCAGCUCGUGAGGAUAUACAUGAGGAUCACCCAUGUGAUCAAUAGCAGCUUCGGCUGCAUUAAUGUAGAAGGUACGAGCUGAU [ENG2/5-C2] (Eterna round: R96, puzzle: Exclusion NG 2)",0.105 µM,0.231 µM,0.463 µM,–,–,–
"GUCAGCUCGUGAGGAUAUAUAUACAUGAGGAUCACCCAUGUAAGAUCAGCACUUCGGUGCAGUAUAUAGAAGGCACGAGCUGAC [ENG2/13-A1] (Eterna round: R96, puzzle: Exclusion NG 2)",0.0461 µM,0.0216 µM,0.0291 µM,–,–,–
"GUCAGCUCGUGAGGAUAUAUAUUAACAUGAGGAUCACCCAUGUAAGAUCAGCUUCGGCAGUUAAUAUAGAAGGCACGAGCUGAC [ENG2/14-A1] (Eterna round: R96, puzzle: Exclusion NG 2)",–,0.137 µM,–,–,–,–
"GUCAGCUCGUGAGGAUAUGCACAUGAGGAUCACCCAUGUAAGAUCAAGCUGCUUCGGCAGCAAGUGCAGAAGGUACGAGCUGAU [ENG2/9-C3] (Eterna round: R96, puzzle: Exclusion NG 2)",0.257 µM,0.225 µM,0.286 µM,–,–,–
"GUCAUCGCAGGAUAUUAGAGUUUUUACAUGAGGAUCACCCAUGUUAAUUGGGUUAAUGUCUAAGAAGGGCGAUGAA [JR_EX5_Sub013] (Eterna round: R97, puzzle: Exclusion 5)",0.126 µM,–,0.0674 µM,–,–,–
"GUCCGGCAUGUAGGAUAUGGAUCCGAUUAGGAUUUAGAAGGACAUGAGGAUCACCCAUGUGCAUUUAAUUAGUCAUUACCGGAC [EXclNG1-LROPPY04] (Eterna round: R96, puzzle: Exclusion NG 1)",0.0164 µM,0.0125 µM,0.0166 µM,–,–,–
"GUCCUUUCUGAGGAUAUUAUCCUUUUCGAUUGAUAAGAAGGCAGUACAUGAGGAUCACCCAUGUGGGUUGUCUG [Polaris30] (Eterna round: R97, puzzle: Exclusion 6)",0.0458 µM,–,0.0382 µM,–,–,–
